Results published in the nanobody polyreactivity screen of Harvey et al. (2022).

Assay: yeast display, Sf9 membrane polyspecificity reagent, FACS + sequencing; frameworks hold sequencing errors
Outline: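 Nanobodies from a synthetic yeast display library (Saccharomyces cerevisiae BJ5465), induced 36–48 hours with galactose, were stained 1 hour at 4 °C with 10% biotinylated, detergent-solubilized Sf9 membrane reagent, enriched on streptavidin microbeads, then FACS-sorted. Anti-HA (expression) and streptavidin (reagent binding) fluorescence set low and high (top ~1%) gates. Polyreactivity labels come from the gate of origin. Genes were colony-PCR amplified, MiSeq 2 × 250 sequenced and filtered by CDR length.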

Sequence | polyreactivity (PSR sort gate)
QVQLVESGGGLVQAGGSLRLSCAASGSTFAYYAMGWYRQAPGKERELVAAISWSGGSTYYADSVKGRFTISRDNAKNTVYLQMNSLKPEDTAVYYCNKRNVLDYDYWGQGTQVTVSS | low polyreactivity
QVQLVESGGGLVQAGGSLRLSCAASGSTFAYYAMGWYRQAPGKESELVAAISSGGSTYYADSVKGRFTISRDNAKNTVYLEMFCLKGDDTAVYYCNKLWVGKFKRYEFGYWGQGTQVTVSS | low polyreactivity
QVQLVESGGGLVQAGGSLRLSCAASGSTFAYYSMGWYRQAPGKERELVAAISRTGGSTYYADSVKGRFTISRDNAKNTVYLQMNSLKPEDTAVYYCNARAPVGTFDYDYWGQGTQVTVSS | low polyreactivity
QVQLVESGGGLVQAGGSLRLSCAASGSTFAYYTMGWYRQAPGKERELVAAISASGGSTYYADSVKGRFTISRDFAKNTVYFQMNSLKPEDTAVYYCNAESYLTGWWVDYWGQGTQVTVSS | low polyreactivity
QVQLVESGGGLVQAGGSLRLSCAASGSTFAYYTMGWYRQAPGKERELVAAITSAGRTSYADSVKGRFTISRDNAKNTVYLQMKSLKPDDTAVYYCAKGRKPGYYYWGQGTQVTVSS | high polyreactivity
QVQLVESGGGLVQAGGSLRLSCAASGSTFCFNDMGWYIQAPGKEREFVAAISSIGGSTYYADSVKGRFKISRDNAKNTLYLQMNSLKPEDTAVYYCAVEVVRVYRYDYWGQGTQVTVSS | low polyreactivity
QVQLVESGGGLVQAGGSLRLSCAASGSTFCHYAMGWYRQAPGKERELVAAISWSGGSTSYADSVKGRFTISRDNAKNTVFLQMNSLIPEDTAVYYCNKRQEWFHFPYTRGYYWGQGTQVSVSS | low polyreactivity
QVQLVESGGGLVQAGGSLRLSCAASGSTFCRNAMGWYRQAPGKEREFVAVISISSGTTYADSVKGRFTISRDNAKNTVYLQMNSMKPEDTAVYYCAAAIGVYYIDYRYLGTVEYWGQGTQGTVSS | low polyreactivity
QVQLVESGGGLVQAGGSLRLSCAASGSTFCSYVMGWYRQAPGKERELVAAISSIGGSTYYADSVKGRFTISRDNAKNTVYLQMNSLKPEDTAVYYCAAEPPGSPYEGGYWGQGTQVTVSS | low polyreactivity
QVQLVESGGGLVQAGGSLRLSCAASGSTFCYYAMGWYRQAPGKERELLAAITRSGGRTYYADSVKGRFTISRDNAKNTVYLQMNSLKPEDTAGYYCAADSRVGFGRLYGYWGQGTQVTVSS | high polyreactivity
QVQLVESGGGLVQAGGSLRLSCAASGSTFDENAMGWYRQAPGKERELVAVISDSGGSTYYADSVKGRFTISRDYAKNTVYFQMNSLKPEDTAVYYCAKDVPPEYPTSSYDYWGQGSQVTVSS | low polyreactivity
QVQLVESGGGLVQAGGSLRLSCAASGSTFDFNAMGWSRQAPGKERELVAAITYSGGSTYYADSVKGRFTISRDNAKNTVYLKMNSLKPEDTAVYYCAAEDVYPGSIDMDYWGQGTQVTVSS | low polyreactivity
QVQLVESGGGLVQAGGSLRLSCAASGSTFDFYAMGLYRQAPGKERELVAAITSGGTTNYADSVKGRFTISRDNAKNTVYLQMNSLKPEDTAVYFCNAYYLGWYRVRAVTGYDYCGQGTQVTVSS | low polyreactivity
QVQLVESGGGLVQAGGSLRLSCAASGSTFDFYAMGWYRQAPGKERELVAAISWSAGSTYYADSVKGRFTISRDIAKNTVYLQMNSLKPEDTAVYYCNADYWGQGTQVTVSS | low polyreactivity
QVQLVESGGGLVQAGGSLRLSCAASGSTFDGNAMGWYRQAPGKERELVAAITWRDGSTSYADSVKGRFTISRDNAKNTVYLQMNSLKPEDTAVYYCAADYEVYQVASAFDYWGQGTQVTVSS | low polyreactivity
QVQLVESGGGLVQAGGSLRLSCAASGSTFDGYAMGWYRQAPGKERELVAAISRSGGRTYYADSVKGRFTISRDNAKNTVYLQMNSLKPEDTAVYYCAALYPYKREDYWGQGTQVTVSS | high polyreactivity
QVQLVESGGGLVQAGGSLRLSCAASGSTFDGYAMGWYRQAPGKERELVAAISSSGAYTYYADSVKGRFTISRDIAKNTVFLQMNSLKPEDTAVYYCNRVTYQQKNDYCGQGTQVTVSS | high polyreactivity
QVQLVESGGGLVQAGGSLRLSCAASGSTFDGYTMGWYRQAPGKERELVAGISWSGTSTYYADSVKGRFTISRDNAKNTVYLQMNSLKPEDTAVYYCAADRYWFRLYTAGVTHRFGYWGQGTQVTVSS | low polyreactivity
QVQLVESGGGLVQAGGSLRLSCAASGSTFDINTMGWYRQAPGKEREFVAAITDSDDSTYYADSVKGRFTISRDNAKNTVYLQMNSLKPEDTAVYYCAHDYDGYVWDTEYDYWGQGTQVTVSS | low polyreactivity
QVQLVESGGGLVQAGGSLRLSCAASGSTFDINTMGWYRQAPGKEREFVAAITDSDDSTYYADSVKGRFTISRDNAKNTVYLQMNSLKPEDTAVYYCNYDYWGQGTQVTVSS | low polyreactivity
QVQLVESGGGLVQAGGSLRLSCAASGSTFDKYPLGWYRQAPGKERELVAAITWGGGSTYYADSVKGRFTISRDNAKNTVYLQMNSLKPEDTAVYYCAAEQGSSVLYDSWGQGTQVTVSS | low polyreactivity

Sequence | polyreactivity (PSR sort gate)
QVQLVESGGGLVQAGGSLRLSCAASGSTFDKYTMGWYRQAPGKERELVATISRSGTSTNYADSVKGRFTISRDNAKNTVYLQLNSLKPEDTAVYYCAAVMRWRDLFSEYYYWGQGTQVTVSS | high polyreactivity
QVQLVESGGGLVQAGGSLRLSCAASGSTFDLNAMGWYRQAPGKERELVARISSVGSTNYADSVKGRFTISRDNAKNTVYLQMNSLKPEDTAVYYCNAGFWDLYDYWGQGTQVTVSS | low polyreactivity
QVQLVESGGGLVQAGGSLRLSCAASGSTFDLNAMGWYRQAPGKERELVARITSSTGRTFYADSVKGRFTISRDNAKNTVYLQMNSLKPEDTAVYYCNTVGHGYSPPVNRSKMDYWGQGTQVTVSS | low polyreactivity
QVQLVESGGGLVQAGGSLRLSCAASGSTFDNYAMGWYRQAPGKERELVAVITQSGGITFYADSVKGRFTISRDNAKNTVYLQMNSLKPEDTAVYYCNVELDRSWYYYWGQGTQVTVSS | low polyreactivity
QVQLVESGGGLVQAGGSLRLSCAASGSTFDPNAMGWYRQAPAKERELVAAISYTGGRTYYADSVKGRFTISRDNAKNTVYLQMNSLKPEDTAVYYCAVLVVGSTTQDEPYFSGVEHDYWGQGTQVTVSS | low polyreactivity
QVQLVESGGGLVQAGGSLRLSCAASGSTFDPNVMGWYRQAPGKERELVAAITWSGGSTSYADSVKGRFTISRDNAKNTVYLQMNSLKPEDTAVYYCAADWHSWRWGYYYWGQGTQVTVSS | low polyreactivity
QVQLVESGGGLVQAGGSLRLSCAASGSTFDPNVMGWYRQAPGNERELVADITTTGVSTYYADSVKGRFTISRDNAKNTVYLQMNSLKPEDTAVYYCNAKLYWYLTRDAYRYRYTYDYWGQGTQVTVSS | low polyreactivity
QVQLVESGGGLVQAGGSLRLSCAASGSTFDQYAMGWYRQAPGKERELVAAISWSGGRTSYAVSVKGRFTISRDTAKNTVYLQMNSLKPEDTAVYYCAADLWFWGFHYPSRMDYWGQGTQVTVSS | high polyreactivity
QVQLVESGGGLVQAGGSLRLSCAASGSTFDRNAMGWYRQAPWKERELVATINSDDSKNYADSVKGRFTISRDNAKNTVYLQMNSLKPEDTAVYYCAARLYVTPILSYVERYTNDYWGQGTQVTVSS | low polyreactivity
QVQLVESGGGLVQAGGSLRLSCAASGSTFDRNVMGWNRQAPGKERELVAAISRVSSTNYADSVKGRFTISRDNAKNTVYLQMHSLKPEDTAVYYCAADRAGSIMNYWGQGSQVTVSS | low polyreactivity
QVQLVESGGGLVQAGGSLRLSCAASGSTFDRNVMGWYRQAPGKERELVAAISRVSSTNYADSVKGRFTISRDNAKNTVYLQMNSLKPEDTAVYYCNARRESYYQRYRVDYWGQGTQVTVSS | low polyreactivity
QVQLVESGGGLVQAGGSLRLSCAASGSTFDRYGMGWYRQAPGKERELVAAITWSVGSTYYADSVKGRFTISRDNAKNTVYLQMNSLKPEDTAVYYCNAGVLGVYTSYNGDDYWGQGTQVTVST | low polyreactivity
QVQLVESGGGLVQAGGSLRLSCAASGSTFDRYGMGWYRQAPGKERELVARITSSGASTYYADSVKGRFTISRDNAMNTVYLQMNSQKPEDTAVYYCAADEGYPGDGDYWGQGTQVTVSS | low polyreactivity
QVQLVESGGGLVQAGGSLRLSCAASGSTFDSNAMGWYRQAPGKERELVAAIRFSGGSTNYADSVKGRFTISRDNAKNTVYLQMNSLKPEDTAVYYCAARYPNLRRRWYYYWGQGTQVTVSS | high polyreactivity
QVQLVESGGGLVQAGGSLRLSCAASGSTFDSNVMGWYRQAHGKERELLAAINYSGVRTYYADSVKGRFTISRDNAKNTVYLQMNSLKPEDTAVYYCNARLFSYRYPEGGYWGQGTQVTVSS | high polyreactivity
QVQLVESGGGLVQAGGSLRLSCAASGSTFDSYAMGWYRQAPGKERELVAALSYNGSSTDYADSVKGRFTISRDNAKNTVDEQMNSLKPEDTAVYYCAAAPGFSAGHHDYWGQGTQVTVSS | low polyreactivity
QVQLVESGGGLVQAGGSLRLSCAASGSTFDTNAMGWYRQAPGKERELVAAISWSRDRTYYADSVKGRFTISRDNAKNTVYLQMNSLNPEDTAVYYCNAYLSFRRQYGYWGQGTQGTVSS | high polyreactivity
QVQLVESGGGLVQAGGSLRLSCAASGSTFDTNDMGWDRQAPGKERELVAAISSGGDYADSVKGRFTISRDNAKNTVYLQLNSLKPEDTAVYYCAKADTKWGQGTQVTVSS | low polyreactivity
QVQLVESGGGLVQAGGSLRLSCAASGSTFDTYAKGWYRQAPGQERELVAAISYRGGNTYYADSVKGRFTISRDNAKNTVYLQMNSLKPEDTAVYYCNAGVSIGRSRRYDYWGQGTHVTVSS | low polyreactivity
QVQLVESGGGLVQAGGSLRLSCAASGSTFDTYAMGWYRQAPGKERELVAAINSGGGTNYADSVKGRFTISRDNAKNTVYLQMNSLKPEDTAVYYCATDSRRDAGGGDFDYWGQGTQVTVSS | low polyreactivity
